Consider 1 substance from patent US9821050.

For the assay, the target named is DENV2 (S-16803) intact virus, E glycoprotein on the virion (dengue virus serotype 2 (S-16803)). Nature of the assay: cell-based or functional assay.

As for human monoclonal antibody 2D22, the Neut50 value is below 0.2 µg/mL.
